Assay results: patent US20240141067A1 (RALLYBIO IPA, published 2024)
Each block holds one molecule with its values, some of them ahead of it.

Key:
[1] = molecular target: APLDQ GPIIIa (murine integrin β3 humanized to carry the HPA-1a epitope, in GPIIb-IIIa) on APLDQ mouse platelets (mouse) (UniProt O54890); experiment: flow cytometry saturation-binding curves on APLDQ platelets
[2] = molecular target: APLDQ GPIIIa (murine integrin β3 humanized to carry the HPA-1a epitope, in GPIIb-IIIa) on APLDQ mouse platelets (mouse) (UniProt O54890); experiment: flow cytometry saturation-binding curve on APLDQ homozygous platelets
[3] = molecular target: T1, HPA-1a (Leu33 form of human GPIIIa / integrin β3, in GPIIb-IIIa) on HPA-1a/a human platelets (human, UniProt P05106 27-788; P08514 32-1039); experiment: flow cytometry on washed human platelets, FITC goat anti-human IgG
T1 construct: whole, on cells; Native antigen on washed platelets from HPA-1a/a individuals; also called HPA-1a alloantigen; HPA-1a expressed on GPIIIa
T1 sequence (P05106 27-788, chain 1 of 2): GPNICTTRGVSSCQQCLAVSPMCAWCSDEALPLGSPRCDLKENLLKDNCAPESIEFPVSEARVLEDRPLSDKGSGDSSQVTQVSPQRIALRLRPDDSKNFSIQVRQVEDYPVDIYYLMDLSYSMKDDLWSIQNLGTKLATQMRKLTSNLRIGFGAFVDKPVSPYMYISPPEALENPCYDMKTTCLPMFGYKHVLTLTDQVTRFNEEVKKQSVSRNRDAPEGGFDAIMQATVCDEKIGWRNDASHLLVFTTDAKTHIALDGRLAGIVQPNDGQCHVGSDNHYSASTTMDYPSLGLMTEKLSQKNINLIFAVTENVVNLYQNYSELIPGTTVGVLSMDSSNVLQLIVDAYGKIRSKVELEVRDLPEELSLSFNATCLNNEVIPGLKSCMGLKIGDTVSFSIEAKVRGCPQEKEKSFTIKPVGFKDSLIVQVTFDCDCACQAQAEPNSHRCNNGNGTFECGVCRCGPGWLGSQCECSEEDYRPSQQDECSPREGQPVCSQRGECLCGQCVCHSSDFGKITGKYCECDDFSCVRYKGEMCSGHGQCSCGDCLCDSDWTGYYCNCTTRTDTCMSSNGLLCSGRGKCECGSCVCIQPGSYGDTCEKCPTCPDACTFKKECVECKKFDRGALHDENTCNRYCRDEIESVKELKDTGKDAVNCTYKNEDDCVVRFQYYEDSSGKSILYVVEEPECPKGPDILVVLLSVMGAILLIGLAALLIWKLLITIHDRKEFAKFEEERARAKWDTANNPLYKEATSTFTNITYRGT
T1 sequence (P08514 32-1039, chain 2 of 2): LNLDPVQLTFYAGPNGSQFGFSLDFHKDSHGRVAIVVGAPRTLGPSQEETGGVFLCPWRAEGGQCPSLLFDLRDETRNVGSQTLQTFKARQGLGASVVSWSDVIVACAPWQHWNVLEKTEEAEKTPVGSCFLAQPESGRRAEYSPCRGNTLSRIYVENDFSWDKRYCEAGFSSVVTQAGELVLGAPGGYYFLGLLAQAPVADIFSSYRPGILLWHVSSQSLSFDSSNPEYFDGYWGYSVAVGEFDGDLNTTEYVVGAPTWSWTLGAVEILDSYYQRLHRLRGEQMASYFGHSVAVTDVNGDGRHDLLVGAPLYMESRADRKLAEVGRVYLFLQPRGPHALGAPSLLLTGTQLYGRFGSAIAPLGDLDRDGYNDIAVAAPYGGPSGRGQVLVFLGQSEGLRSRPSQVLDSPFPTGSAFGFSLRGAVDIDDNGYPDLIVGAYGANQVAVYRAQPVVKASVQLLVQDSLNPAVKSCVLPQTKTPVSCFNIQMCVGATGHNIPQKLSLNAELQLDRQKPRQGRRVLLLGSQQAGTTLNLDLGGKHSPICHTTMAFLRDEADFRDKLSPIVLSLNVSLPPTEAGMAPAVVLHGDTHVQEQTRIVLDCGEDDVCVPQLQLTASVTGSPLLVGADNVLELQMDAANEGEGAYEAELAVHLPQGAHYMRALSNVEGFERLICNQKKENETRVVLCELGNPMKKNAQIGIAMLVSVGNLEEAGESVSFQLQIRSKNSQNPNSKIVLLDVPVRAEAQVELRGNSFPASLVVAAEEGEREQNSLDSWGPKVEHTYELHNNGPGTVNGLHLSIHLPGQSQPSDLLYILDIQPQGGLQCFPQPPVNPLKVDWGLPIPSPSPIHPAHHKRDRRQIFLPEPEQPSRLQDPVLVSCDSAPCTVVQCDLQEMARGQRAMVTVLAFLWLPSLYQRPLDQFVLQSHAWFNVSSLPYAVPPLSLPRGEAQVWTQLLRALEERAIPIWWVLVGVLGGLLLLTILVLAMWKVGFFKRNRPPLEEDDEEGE

Chain of APLDQ GPIIIa (murine integrin β3 humanized to carry the HPA-1a epitope, in GPIIb-IIIa) on APLDQ mouse platelets (mouse) (O54890 26-787, chain 1 of 2): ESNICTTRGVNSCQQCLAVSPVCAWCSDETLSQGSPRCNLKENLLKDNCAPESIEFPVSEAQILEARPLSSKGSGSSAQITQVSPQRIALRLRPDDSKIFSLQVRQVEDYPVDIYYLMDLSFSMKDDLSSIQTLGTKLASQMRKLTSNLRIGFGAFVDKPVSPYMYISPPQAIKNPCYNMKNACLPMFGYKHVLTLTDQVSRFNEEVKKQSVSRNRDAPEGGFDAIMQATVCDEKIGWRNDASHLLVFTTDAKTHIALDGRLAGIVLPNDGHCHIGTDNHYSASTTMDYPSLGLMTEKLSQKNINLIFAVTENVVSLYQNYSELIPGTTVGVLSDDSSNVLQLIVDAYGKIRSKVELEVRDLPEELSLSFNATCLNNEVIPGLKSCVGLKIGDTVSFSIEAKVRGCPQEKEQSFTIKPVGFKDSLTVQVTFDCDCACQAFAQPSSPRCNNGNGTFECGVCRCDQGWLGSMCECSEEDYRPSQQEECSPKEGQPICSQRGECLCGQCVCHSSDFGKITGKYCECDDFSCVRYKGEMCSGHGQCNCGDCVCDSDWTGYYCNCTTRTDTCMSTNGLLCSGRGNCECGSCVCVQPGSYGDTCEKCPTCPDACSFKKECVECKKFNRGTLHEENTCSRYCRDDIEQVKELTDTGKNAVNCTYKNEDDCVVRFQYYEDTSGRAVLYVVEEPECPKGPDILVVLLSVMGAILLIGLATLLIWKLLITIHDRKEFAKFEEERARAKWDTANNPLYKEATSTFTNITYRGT
Chain of APLDQ GPIIIa (murine integrin β3 humanized to carry the HPA-1a epitope, in GPIIb-IIIa) on APLDQ mouse platelets (mouse) (Q9QUM0 32-1033, chain 2 of 2, further chain): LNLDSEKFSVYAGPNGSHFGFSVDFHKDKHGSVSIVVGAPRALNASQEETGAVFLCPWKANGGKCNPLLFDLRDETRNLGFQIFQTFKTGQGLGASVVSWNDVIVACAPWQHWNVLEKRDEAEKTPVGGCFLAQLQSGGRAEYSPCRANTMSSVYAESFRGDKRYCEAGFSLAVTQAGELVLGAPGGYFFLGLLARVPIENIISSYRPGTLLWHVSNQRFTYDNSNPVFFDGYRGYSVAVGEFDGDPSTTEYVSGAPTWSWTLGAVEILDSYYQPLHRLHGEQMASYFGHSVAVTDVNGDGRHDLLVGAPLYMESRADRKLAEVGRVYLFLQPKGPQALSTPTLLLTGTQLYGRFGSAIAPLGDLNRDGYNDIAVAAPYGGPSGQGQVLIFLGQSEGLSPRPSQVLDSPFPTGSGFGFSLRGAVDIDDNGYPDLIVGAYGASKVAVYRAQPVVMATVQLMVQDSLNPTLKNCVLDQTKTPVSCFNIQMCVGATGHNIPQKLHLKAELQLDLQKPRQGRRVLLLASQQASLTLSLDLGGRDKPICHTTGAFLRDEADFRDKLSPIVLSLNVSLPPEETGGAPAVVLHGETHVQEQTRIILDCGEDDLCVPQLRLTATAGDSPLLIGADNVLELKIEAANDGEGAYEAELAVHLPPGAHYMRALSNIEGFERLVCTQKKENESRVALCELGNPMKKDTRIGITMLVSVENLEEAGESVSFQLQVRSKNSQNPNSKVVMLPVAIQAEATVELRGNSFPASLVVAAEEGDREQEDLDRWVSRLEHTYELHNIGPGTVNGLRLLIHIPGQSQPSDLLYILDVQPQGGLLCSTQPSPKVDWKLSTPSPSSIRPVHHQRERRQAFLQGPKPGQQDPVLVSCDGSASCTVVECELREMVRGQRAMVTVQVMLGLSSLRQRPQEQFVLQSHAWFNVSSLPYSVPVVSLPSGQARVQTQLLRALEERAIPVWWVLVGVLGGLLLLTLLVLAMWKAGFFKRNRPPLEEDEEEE

occupancy of available GPIIb-IIIa receptors at ~4 IU/mL [1]: < 10%
Molecule: RLYB211 (antibody)

occupancy of available GPIIb-IIIa receptors at ~4 IU/mL [1]: < 10%
concentration that fully saturates GPIIb-IIIa receptors [2]: > 100 IU/ml
binding result [3]: binds
B1: RLYB212 (antibody, human IgG1, kappa, V domains shown)
VH: QVQLQQSGPGLVKPSQTLSLTCAISGDSVSSNSAAWNWIRQSPSRGLEWLGRTYFRSNWYNDYAASVKSRITINQDTSKNQLSLQLNSVTPEDTAVYYCARDGAWGGSSWWPGLPHHYYSGMDVWGQGTTVTVSS
VL: EIVLTQSPATLSLSPGERATLSCRASQSVSSYLAWYQQKPGQAPRLLIYDASKRATGIPARFSGSGSGTDFSLTIRSLEPEDFAVYYCQQRSDWQGLTFGGGTKVEIKR
notes: also called monoclonal RLYB212; monospecific monoclonal antibody RLYB212
